Reference: article PMC10875832 (2024)

What was measured:
soluble CAR D1 domain = soluble CAR D1 domain (chicken); assay: SPR
soluble CAR D12 = soluble CAR D12 (chicken); assay: SPR

B1: CELO fiber1 knob (domain or fragment)
chain: GSSTPEVATYHCGDNLLESYDIFASLPNTNAAKVAAYCRLAAAGGVVSGTIQVTSYAGRWPKVGNSVTDGIKFAIVVSPPMDKDPRSNLSQWLGATVFPAGATTALFSPNPYGSLNTITTLPSIASDWYVPESNLVTYTKIHFKPTGSQQLQLASGELVVAAAKSPVQTTKYELIYLGFTLKQNSSGTNFFDPNASSDLSFLTPPIPFTYLGYYQ
**Q.** For B1, which Kd (soluble CAR D1 domain) is on record?
**A.** Its Kd is 420 nM.

**Q.** What about the Kd (soluble CAR D12) of the same binder?
**A.** Its Kd is 115 nM.
